From paper PMC2879510

Target: U1A-Myc-His (UniProt P09012 1-102)
Experiment: competition

Chain of U1A-Myc-His (P09012 1-102): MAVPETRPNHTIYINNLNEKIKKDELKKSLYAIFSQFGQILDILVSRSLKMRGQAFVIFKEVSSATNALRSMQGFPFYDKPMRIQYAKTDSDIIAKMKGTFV

Does GGCAUAUCCAGUGCACCAGGGUAUGCC (structured_RNA) [hpIIΔDIS (U1 hpII Δ16/18A/10G)] bind?
Result: binds
